Test results taken from patent US7935343B2 (MedImmune Limited, dated 2011).
Each block holds one binder with its values, some of them ahead of it.

Tests used:
[1] = biological target: T1, murine IL-13 (murine); test: BIAcore, IgG4 coupled to the chip, IL-13 in flow
T1 chain: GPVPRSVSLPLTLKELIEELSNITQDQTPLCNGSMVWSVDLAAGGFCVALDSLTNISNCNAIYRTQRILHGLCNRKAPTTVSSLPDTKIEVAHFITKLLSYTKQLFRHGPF

[2] = biological target: human IL-13 (human); test: BIAcore, IgG coupled to the chip, IL-13 in flow
[3] = biological target: native human IL-13 released from HDLM-2 cells (human); test: cell-based or functional assay
[4] = biological target: human IL-13 (human); test: BIAcore, IgG4 coupled to the chip, IL-13 in flow
[5] = biological target: human IL-13 (human); test: cell-based or functional assay
[6] = biological target: human IL-13 (human); test: cell-based or functional assay; remark: listed apart in the source

native human IL-13 released from HDLM-2 cells (human), sequence (chain, as listed by the source): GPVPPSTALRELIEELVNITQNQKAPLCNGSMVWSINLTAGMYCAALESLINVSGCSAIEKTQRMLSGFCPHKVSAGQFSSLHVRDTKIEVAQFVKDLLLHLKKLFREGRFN
human IL-13 (human), sequence (chain, as listed by the source): as above

B1: BAK209B11 human IgG4 (antibody, V domains shown)
VH: VQLQESGGGGLVQPGGSLRLSCAASGFTFSSYGMSWVRQAPGKGLEWVSSISASGDSTFYADSVKGRFTISRDNNKNMVFLQVNSLRADDTAVYFCAKDWSQWLVGDAFDVWGRGTTVTVSS
VL: DIQLTQSPSTLSASVGDRVTITCRASQSVSLWVAWYQQRPGKAPKLLIYDGSTLQSGVPARFSGSGSGTEFTLTISSLQPDDFATYYCQQYKTFSTFGQGTKVEIKR
Kd [1]: 5.1 nM
koff [1]: 0.0198 s⁻¹
kon [1]: 3.9e+06 M⁻¹ s⁻¹

B2: BAK278D6 IgG (antibody, V domains shown)
VH: EVQLVQSGAEVKKPGASVKVSCKASGYTFRNYGLSWVRQAPGQGLEWMGWISANNGDTNYGQEFQGRITMTTETSTNTAHMELRSLRSDDTAVYYCVRDSSSNWARWFFDLWGKGTMVTVSS
VL: SYVLTQPPSVSVAPGQTARIPCGGNNIGSKLVHWYQQKPGQAPVLVVYDDGDRPSGIPERFSGSNSGNTATLTISRIDAGDEADYYCQVWDTGSDPVVFGGGTKLTVL
Kd [2]: 13.5 nM
koff [2]: 0.00741 s⁻¹
kon [2]: 549000 M⁻¹ s⁻¹

B3: BAK1183H4 IgG4 (antibody, V domains shown)
VH: QVQLVQSGAEVKKPGASVKVSCKASGYTFTNYGLSWVRQAPGQGLEWMGWINYDGGNTQYGQEFQGRVTMTTDTSTSTAYMELRSLRSDDTAVYYCARDSSSSWARWFFDLWGRGTLVTVSS
VL: SYVLTQPPSVSVAPGKTARITCGGNIIGSKLVHWYQQKPGQAPVLVIYDDGDRPSGIPERFSGSNSGNTATLTISRVEAGDEADYYCQVWDTGSDPVVFGGGTKLTVL
IC50, HDLM-2 cell proliferation [3]: 3.5 nM
Kd [4]: 0.081 nM

B5: BAK502G9 scFv (scFv, V domains shown)
VH: QVQLVQSGAEVKKPGASVKVSCKASGYTFTNYGLSWVRQAPGQGLEWMGWISANNGDTNYGQEFQGRVTMTTDTSTSTAYMELRSLRSDDTAVYYCARDSSSSWARWFFDLWGRGTLVTVSS
VL: SYVLTQPPSVSVAPGKTARITCGGNIIGSKLVHWYQQKPGQAPVLVIYDDGDRPSGIPERFSGSNSGNTATLTISRVEAGDEADYYCQVWDTGSDPVVFGGGTKLTVL
IC50, TF-1 proliferation (Mean TF1) [5]: 8 nM

B7: BAK1167F2 scFv (scFv, V domains shown)
VH: QVQLVQSGAEVKKPGASVKVSCKASGYTFEQTGVSWVRQAPGQGLEWMGWISANNGDTNYGQEFQGRVTMTTDTSTSTAYMELRSLRSDDTAVYYCARDSSSSWARWFFDLWGRGTLVTVSS
VL: SYVLTQPPSVSVAPGKTARITCGGNIIGSKLVHWYQQKPGQAPVLVIYDDGDRPSGIPERFSGSNSGNTATLTISRVEAGDEADYYCQVWDTGSDPVVFGGGTKLTVL
IC50, TF-1 proliferation (Mean TF1) [5]: 0.2 nM

B9: BAK615E3 scFv (scFv, V domains shown)
VH: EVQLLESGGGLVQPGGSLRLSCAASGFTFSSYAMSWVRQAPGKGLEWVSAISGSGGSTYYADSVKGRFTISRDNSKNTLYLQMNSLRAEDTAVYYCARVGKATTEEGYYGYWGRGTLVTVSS
VL: NFMLTQPHSVSESPGKTVTISCTRSSGSIASNYVQWYQQRPGSAPTTVIYDDNQRPSGVPDRFSGSIDSSSNSASLTISGLKTEDEADYYCQSYDSNNDVFGGGTKVTVL
IC50, TF-1 cell proliferation [6]: 3 nM

Now from value to binder:

IC50, TF-1 proliferation (Mean TF1) [5]: 0.2 nM
B4: BAK1183H4 scFv (scFv, V domains shown)
VH: QVQLVQSGAEVKKPGASVKVSCKASGYTFTNYGLSWVRQAPGQGLEWMGWINYDGGNTQYGQEFQGRVTMTTDTSTSTAYMELRSLRSDDTAVYYCARDSSSSWARWFFDLWGRGTLVTVSS
VL: SYVLTQPPSVSVAPGKTARITCGGNIIGSKLVHWYQQKPGQAPVLVIYDDGDRPSGIPERFSGSNSGNTATLTISRVEAGDEADYYCQVWDTGSDPVVFGGGTKLTVL

IC50, HDLM-2 cell proliferation [3]: 4.6 nM
B6: BAK502G9 IgG4 (antibody, V domains shown)
VH: QVQLVQSGAEVKKPGASVKVSCKASGYTFTNYGLSWVRQAPGQGLEWMGWISANNGDTNYGQEFQGRVTMTTDTSTSTAYMELRSLRSDDTAVYYCARDSSSSWARWFFDLWGRGTLVTVSS
VL: SYVLTQPPSVSVAPGKTARITCGGNIIGSKLVHWYQQKPGQAPVLVIYDDGDRPSGIPERFSGSNSGNTATLTISRVEAGDEADYYCQVWDTGSDPVVFGGGTKLTVL

IC50, HDLM-2 cell proliferation [3]: 1.1 nM
Kd [4]: 0.136 nM
B8: BAK1167F2 IgG4 (antibody, V domains shown)
VH: QVQLVQSGAEVKKPGASVKVSCKASGYTFEQTGVSWVRQAPGQGLEWMGWISANNGDTNYGQEFQGRVTMTTDTSTSTAYMELRSLRSDDTAVYYCARDSSSSWARWFFDLWGRGTLVTVSS
VL: SYVLTQPPSVSVAPGKTARITCGGNIIGSKLVHWYQQKPGQAPVLVIYDDGDRPSGIPERFSGSNSGNTATLTISRVEAGDEADYYCQVWDTGSDPVVFGGGTKLTVL
